# Measured values: article PMC4263446 (Molecular Biology of the Cell, 2014)
# B1: Flag-CD73L (canonical ecto-5′-nucleotidase, long protein isoform of CD73) (enzyme, human, UniProt P21589-1 27-549, looked up)
# chain: WELTILHTNDVHSRLEQTSEDSSKCVNASRCMGGVARLFTKVQQIRRAEPNVLLLDAGDQYQGTIWFTVYKGAEVAHFMNALRYDAMALGNHEFDNGVEGLIEPLLKEAKFPILSANIKAKGPLASQISGLYLPYKVLPVGDEVVGIVGYTSKETPFLSNPGTNLVFEDEITALQPEVDKLKTLNVNKIIALGHSGFEMDKLIAQKVRGVDVVVGGHSNTFLYTGNPPSKEVPAGKYPFIVTSDDGRKVPVVQAYAFGKYLGYLKIEFDERGNVISSHGNPILLNSSIPEDPSIKADINKWRIKLDNYSTQELGKTIVYLDGSSQSCRFRECNMGNLICDAMINNNLRHTDEMFWNHVSMCILNGGGIRSPIDERNNGTITWENLAAVLPFGGTFDLVQLKGSTLKKAFEHSVHRYGQSTGEFLQVGGIHVVYDLSRKPGDRVVKLDVLCTKCRVPSYDPLKMDEVYKVILPNFLANGGDGFQMIKDELLRHDSGDQDINVVSTYISKMKVIYPAVEGRIKFS
# modifications: glycosylated (Asn-311/333/403)
# Molecular target: the molecule itself
# Assay: non-reducing SDS-PAGE
protein,measurement,value
B1,stoichiometry N,2
